# Results published in article PMC8837605, “In vitro reconstitution of an efficient nucleotide excision repair system using mesophilic enzymes from Deinococcus radiodurans”.
# B1: F26-seq1 (dsDNA)
# DNA 1: GACTACGTACTGTTACGGCTCCATCTCTACCGCAATCAGGCCAGATCTGC
# DNA 2: GCAGATCTGGCCTGATTGCGGTAGAGATGGAGCCGTAACAGTACGTAGTC
# modifications: fluorescein-conjugated dT at position 26 of strand 1
# B2: B26-seq1 (dsDNA)
# DNA 1: B1 DNA 1
# DNA 2: B1 DNA 2
# modifications: biotin-conjugated dT at position 26 of strand 1
# B3: 5'-FAM-seq1 (seq1-FAM) (dsDNA)
# DNA 1: B1 DNA 1
# DNA 2: B1 DNA 2
# B4: F26-seq2 (dsDNA)
# DNA 1: GTTAGCGAACGATACCTTCAGTAGATCAAGTCCTAGCTGACCGGTTCGGC
# DNA 2: GCCGAACCGGTCAGCTAGGACTTGATCTACTGAAGGTATCGTTCGCTAAC
# modifications: fluorescein-conjugated dT at position 26 of strand 1
# Legend:
# [1] = biological target: T1, drUvrA1 (Deinococcus radiodurans, UniProt Q46577 1-1016); test: fluorescence polarization; 2.5 mM Mg2+, 2.5 mM ATP; Hill 1.34; 50 mM Tris pH 7.5, 50 mM KCl, 5 mM DTT, 0.01% Tween 20, 2.5 mM MgCl2, 2.5 mM ATP, 0.1 mg/mL BSA; room temperature; 2 nM DNA, 0-1 uM drUvrA1 (dimer); conditions: protein: recombinant; tags: N-terminal His-tag removed by TEV; chain copies: 2; label: 5'-ATTO633 on strand 1; internal fluorescein-dT; blunt
# [2] = biological target: T1, drUvrA1; test: fluorescence polarization; 2.5 mM Mg2+, 2.5 mM ATP; Hill 0.97; 50 mM Tris pH 7.5, 50 mM KCl, 5 mM DTT, 0.01% Tween 20, 2.5 mM MgCl2, 2.5 mM ATP, 0.1 mg/mL BSA; room temperature; 2 nM DNA, 0-1 uM drUvrA1 (dimer); conditions: protein: recombinant; tags: N-terminal His-tag removed by TEV; chain copies: 2; label: 5'-FAM on strand 1; blunt
# [3] = biological target: T1, drUvrA1; test: fluorescence polarization; 2.5 mM Mg2+, 2.5 mM ATP; Hill 0.92; 50 mM Tris pH 7.5, 50 mM KCl, 5 mM DTT, 0.01% Tween 20, 2.5 mM MgCl2, 2.5 mM ATP, 0.1 mg/mL BSA; room temperature; 2 nM DNA, 0-1 uM drUvrA1 (dimer); conditions: protein: recombinant; tags: N-terminal His-tag removed by TEV; chain copies: 2; label: 5'-FAM on strand 1; blunt
# [4] = biological target: T1, drUvrA1; test: fluorescence polarization; 2.5 mM Mg2+, 2.5 mM ATP; Hill 2.10; 50 mM Tris pH 7.5, 50 mM KCl, 5 mM DTT, 0.01% Tween 20, 2.5 mM MgCl2, 2.5 mM ATP, 0.1 mg/mL BSA; room temperature; 2 nM DNA, 0-1 uM drUvrA1 (dimer); conditions: protein: recombinant; tags: N-terminal His-tag removed by TEV; chain copies: 2; label: 5'-ATTO633 on strand 1; internal fluorescein-dT; blunt
# T1 sequence (Q46577 whole entry): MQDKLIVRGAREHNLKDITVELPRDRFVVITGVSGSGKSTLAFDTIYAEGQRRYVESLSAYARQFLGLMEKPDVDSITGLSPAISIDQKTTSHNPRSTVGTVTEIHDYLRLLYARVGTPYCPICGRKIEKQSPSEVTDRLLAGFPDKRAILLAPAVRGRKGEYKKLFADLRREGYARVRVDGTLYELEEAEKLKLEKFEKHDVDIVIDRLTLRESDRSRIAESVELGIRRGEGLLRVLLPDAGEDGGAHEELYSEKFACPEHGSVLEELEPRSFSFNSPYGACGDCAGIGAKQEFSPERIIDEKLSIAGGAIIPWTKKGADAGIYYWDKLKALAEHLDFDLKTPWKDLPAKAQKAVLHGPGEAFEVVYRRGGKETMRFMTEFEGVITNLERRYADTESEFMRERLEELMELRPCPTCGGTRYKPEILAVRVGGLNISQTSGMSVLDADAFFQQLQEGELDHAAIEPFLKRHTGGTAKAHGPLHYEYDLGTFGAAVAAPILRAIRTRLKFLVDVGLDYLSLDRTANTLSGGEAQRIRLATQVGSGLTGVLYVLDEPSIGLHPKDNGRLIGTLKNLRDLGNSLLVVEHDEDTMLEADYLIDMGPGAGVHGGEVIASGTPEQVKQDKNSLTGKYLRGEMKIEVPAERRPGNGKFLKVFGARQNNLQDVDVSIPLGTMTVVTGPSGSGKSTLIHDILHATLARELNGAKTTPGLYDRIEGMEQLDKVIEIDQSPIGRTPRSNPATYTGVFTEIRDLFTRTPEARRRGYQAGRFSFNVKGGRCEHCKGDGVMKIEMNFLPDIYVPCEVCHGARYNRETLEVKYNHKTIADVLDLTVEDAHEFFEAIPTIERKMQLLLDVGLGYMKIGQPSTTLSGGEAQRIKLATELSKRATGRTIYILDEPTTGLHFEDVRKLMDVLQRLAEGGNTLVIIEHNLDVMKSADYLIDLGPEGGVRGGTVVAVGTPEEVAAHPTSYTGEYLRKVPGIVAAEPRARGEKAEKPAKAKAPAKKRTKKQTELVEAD
binder,measurement,setting,value
B1,Kd,[1],9 ± 0.7 nM
B2,Kd,[2],128 ± 15 nM
B3,Kd,[3],85 ± 12 nM
B4,Kd,[4],9 ± 0.5 nM
